B1: HDV Ribozyme (parent)
chain: GGCCGGCAUGGUCCCAGCCUCCUCGCUGGCGCCGGCUGGGCAACAUUCCGAGGGGACCGUCCCCUCGGUAAUGGCGAAUGGGACCCA

Variants of: B1
Experiment: self-cleavage, relative activity (ratio to wild type); higher = more cleavage; co-transcriptional
GGCCGGCAUGGUCCCAGCCUUCUCGCUGGCGCCGGCUGGGCAACAUUCCGAGGGGACCGUCCCCUCGGUAAUGGCGAAUGGGACCAA showed a self-cleavage of 0.505. Work on GGCCGGCAUGGUCCCAUCCUCCUCGCUGGCGCCGGCUGGGGAACAUUCCGAGGGGACCGUCCCCUCGGUAAUGGCGAAUGGGACCCA yielded a self-cleavage of 0.0462. Variant GGCCGGCAUGGUCCCAGCCUCCUCGCUGGCGCCGGCUGGGCAACAUUCCGAGGGGACCGUCCCCUCGGUAAUGGCAAAUGGGACUCA has a self-cleavage of 1.11. With GGCCGGCAUGGUCCCAGCCUCCUCGCUGGCGCCGGCUGGGCACCAUUCCGAGGGGACCGUCCCCUCGGUAAUGGCAAAUGGGACCCA the self-cleavage was 0.554. Variant GGCAGGCAUGGUCCCAGCCUCCUCGCUGGCGCCGGCUGGGCAACAUUCCGAGGGGACCGUCCCCUCGGUUAUGGCGAAUGGGACCCA has a self-cleavage of 0.252. Work on GGCCGGCAUGGUCCCAGCCUCCUCGCAGGCGCGGGCUGGGCAACAUUCCGAGGGGACCGUCCCCUCGGUAAUGGCGAAUGGGACCCA yielded a self-cleavage of 0.287. With GGCCGGUAUGGUCCCAGCCUCCUCGCUGGCGGCGGCUGGGCAACAUUCCGAGGGGACCGUCCCCUCGGUAAUGGCGAAUGGGACCCA the self-cleavage was 0.0361. For GGCCGGCAUGGUCCCAGCCUCAUCGCUGGCGCCGGCUGGGCAACAUUCCGAGGGGACCGUCCCCUCGGUAAUGGCGAAUGGGCCCCA, the self-cleavage was 0.147. Work on GGCCGGCAUGGUCCCAGCCUCCUCGCUGGCGCCGGCUGGGCAACAUUCCUAGGGGACCGUCCCCUCGGUAAUGGCUAAUGGGACCCA yielded a self-cleavage of 1.04. With GGCCGGCAUGGUCCAAGCCUCCUCGCUGGCGCCGGCUGGGCAACAUUCCGAGGGGACCAUCCCCUCGGUAAUGGCGAAUGGGACCCA the self-cleavage was 0.543. Work on GGCCGGCAUGGUCCCAGCCUCGUCGCUGGCGCCGGCUGGGCAACAUUCCGAGGGGACCGUCCCCUCGGUAAUGGCGAAUAGGACCCA yielded a self-cleavage of 0.135. In the case of GGCCGGCAUGGUCCCAGCCUCCUCGCUGGCGCCGGCUGGGCAACAUUCCGGGGGGACCGUCCCCUCGGUAAUGGCGAAUGGGAACCA, the self-cleavage is reported as 0.698. GGCCGGCAUGGUCCCAGCCUCCUCGCUGGCGCCGGCUGGGCAACAUUCAGAGGGGACCGCCCCCUCGGUAAUGGCGAAUGGGACCCA showed a self-cleavage of 0.78. Variant GGCCGGCAUGGUCCCAGCCUCCUCGCUGGCGCCGGCUGGGCAACUUUCCGAGGGGACCGUCCCCUCGGUCAUGGCGAAUGGGACCCA has a self-cleavage of 0.95. GGCCGGCAUGGUCCCAGCCUCCUCGCAGGCGCCGGCUGGGCAACAUUCCGAGGGGACCGUCCCCUCGGUAAUGGCGAAUGGCACCCA gave a self-cleavage of 0.322. Variant GGCCGGCAUGGUCCCAGCCUCCUCGCUGGCGCCGGCUGGGCAACCUUCCCAGGGGACCGUCCCCUCGGUAAUGGCGAAUGGGACCCA has a self-cleavage of 0.504. Work on GGCCGGCAUGGUCCCAGCCUCCUCGCUGGCGCCGGCUGGGCAAUAUUCCGAGGGGACCGUCCCCUCCGUAAUGGCGAAUGGGACCCA yielded a self-cleavage of 0.755. GGCCCGCAUGGUCCCAGCCUCCUCGCUGGCGCCGGCUGGGCAACCUUCCGAGGGGACCGUCCCCUCGGUAAUGGCGAAUGGGACCCA showed a self-cleavage of 0.0639. In the case of GGCCGGCAUGGUCCCAGCCUCCUCGCUGGCGCCGGCUGGGCAAUAUUCCGAGGGGACCGUCCCCUCGGUAACGGCGAAUGGGACCCA, the self-cleavage is reported as 0.779. GGCCGGCAUGGUCCCAGCCUCCUCGCUGGCGACGGCUGGGCAACAUUCCGAGGGGACCGUCCCGUCGGUAAUGGCGAAUGGGACCCA showed a self-cleavage of 0.131. GGCCGGCAUGGUCCCAGCCUCCUCGCUGGCGCCGGGUGGGCAACAUUCCGACGGGACCGUCCCCUCGGUAAUGGCGAAUGGGACCCA showed a self-cleavage of 0.166. GGCCGGCAUGGGCCCAGCCUCCUCGCUGGCGCCGGCUGGGCAACAUUCCGAGGGGACCGUCCCCUCGGUGAUGGCGAAUGGGACCCA showed a self-cleavage of 1.04. Work on GGCCGGCAUGGUCCCAGCCUCCUCGCUGGCGCCGGCUGGGCAACAUUGCGAGGGGACCGUCCCCUCGGUAACGGCGAAUGGGACCCA yielded a self-cleavage of 0.449. With GGCCGGCAUGGUCCCAGCCUCCUCGCUGGCGCCGGCUGGGCAACAUUCCGAGGGGACCGUCCCCUCGGUAAUGGCGAAUGGGGUCCA the self-cleavage was 0.798. GGCCGGCAUGGUCCCAGCCUCCUCGCUUGCGCCGGCUGGGCAACAUUCCGAGGGGACCGUCCCCUCGGUCAUGGCGAAUGGGACCCA showed a self-cleavage of 0.131. GGCCGGCAUGGUCCCAGCCUCCUCGCUGGCGCCGGCUAGGCAACAUUCCGAGGGGACCGUCCCCUCGGUAAUGGCGGAUGGGACCCA showed a self-cleavage of 0.0852. Variant GGCCGGCAUGGUCCCGGCCUCCUCGCUGGCGCCGGCUGGGCAACAUUCCGAGGGGACCGUCCCCUCGGUAAUGGCGAAUGGGCCCCA has a self-cleavage of 0.462. For GGCCGGCAUGGUCCCAGCCUCCUCGCUGGCGCCGGCUGGGCAACAUUCCGAGGGGACCGUCCCCUCGGUAAUUGCAAAUGGGACCCA, the self-cleavage was 0.208. With GGCCGGCAAGGUCCCAGCCUCCUCGCUGGCGCCGGCUGGGCAACAUUCCGAGGGGACCGUCCCCUCGGUAAAGGCGAAUGGGACCCA the self-cleavage was 0.712. Work on GGCCGGUAUGGUCCCAGCCUCCUCGCUUGCGCCGGCUGGGCAACAUUCCGAGGGGACCGUCCCCUCGGUAAUGGCGAAUGGGACCCA yielded a self-cleavage of 0.0712. Work on GGCCGGCAUGGUCCCAGCCUCCUCGCUGGCGCCGCCUGGGCCACAUUCCGAGGGGACCGUCCCCUCGGUAAUGGCGAAUGGGACCCA yielded a self-cleavage of 0.107. Variant GUCCGGCAUGGUCCCAGCCUCCUCGCUGGCGCCGGCUGGGCAACAUUCCAAGGGGACCGUCCCCUCGGUAAUGGCGAAUGGGACCCA has a self-cleavage of 0.047. Variant GGCCGGCAUGGUCCCAGCCUCCUCGCUGGCGCAGGCUGGGCAACAUUCCGUGGGGACCGUCCCCUCGGUAAUGGCGAAUGGGACCCA has a self-cleavage of 0.373. Work on GGGCGGCAUGGUCCCAGCCUCCUCGCUGGCGCCGGCUGGGCAACAUUCCGAGGGGACCGUCCCCUCGGUAAUGGCGAAUGGUACCCA yielded a self-cleavage of 0.166. GGCCGGCAUGGUCCCGGCCUCCUCGCUGGCGCCGGCUGGGCAACAUUCCGAGGGGACCGUCCCCUCGGUAAUGCCGAAUGGGACCCA showed a self-cleavage of 0.435. GCCCAGCAUGGUCCCAGCCUCCUCGCUGGCGCCGGCUGGGCAACAUUCCGAGGGGACCGUCCCCUCGGUAAUGGCGAAUGGGACCCA showed a self-cleavage of 0.0563. For GGCCGGCUUGGUCCCAGCCUCCUCGCUGGCGCCGGCUGGGCAACAUUCCGAGGGGACCGUCCCCUCGGUGAUGGCGAAUGGGACCCA, the self-cleavage was 0.969. In the case of GGCCGGCAUGGUCCCAGCCUCCUCCCUGGCGCCGGCUCGGCAACAUUCCGAGGGGACCGUCCCCUCGGUAAUGGCGAAUGGGACCCA, the self-cleavage is reported as 0.119. With GGCCGGCAUGGCCCCAGCCUCCUCGCUGGCGCCGGCUGGGCAACAUUCCGAGGGGACCGUCCUCUCGGUAAUGGCGAAUGGGACCCA the self-cleavage was 0.389. For GGUCGGCAUGGUCCCAGCCUCCUCGCUGGCGCCGUCUGGGCAACAUUCCGAGGGGACCGUCCCCUCGGUAAUGGCGAAUGGGACCCA, the self-cleavage was 0.649. GGCCGGCAUGGUCCCAGCCUCCUCGCUGGGGCCGGCUGGGCAACAUUCCGAGGGGACCGUCCCCGCGGUAAUGGCGAAUGGGACCCA showed a self-cleavage of 0.0346. GGCCGGCAUGGUCCCAGCCUCCUCUCUGGCGCCCGCUGGGCAACAUUCCGAGGGGACCGUCCCCUCGGUAAUGGCGAAUGGGACCCA showed a self-cleavage of 0.0396. Variant GGCCGGCAUGGUCCCCGCCUCCUCGCUGGCGCCGGCUGGGCACCAUUCCGAGGGGACCGUCCCCUCGGUAAUGGCGAAUGGGACCCA has a self-cleavage of 0.415. In the case of GGCCGGCAUGGUCCCAGCCUCCUCGCUGGCGCCGGCUGGGCAACAUUCCGAGGGGAUCGUCCCCUCGGUAAUGGCGAAUGGCACCCA, the self-cleavage is reported as 0.208. For GGCCGGCAUGAUCCCAGCCUCCUCGCUGGCGCCGACUGGGCAACAUUCCGAGGGGACCGUCCCCUCGGUAAUGGCGAAUGGGACCCA, the self-cleavage was 0.272. Work on GGCCGGCAUGGUCCCAGCCUCCUCGCUGGCGCCGGCUGGUCAACAUUCCGAGGGGACCGUCCCCACGGUAAUGGCGAAUGGGACCCA yielded a self-cleavage of 0.808. Work on GGCCGGCAUGGUCCCAGCCUCCUCUCUGGCGCCGGCUGGGCAACUUUCCGAGGGGACCGUCCCCUCGGUAAUGGCGAAUGGGACCCA yielded a self-cleavage of 0.172. Work on GGCCGGCAUGGUGCCAGCCUCCUCGCUGGCGCCGGCUGGGCAACAUUCCGAGGGGACCGUCCCCUCGGUAAUGGCGAAUGGGACACA yielded a self-cleavage of 0. GGCCGGCAUGGUCCCAGCCUCCUCGCUGGCGCCGGCUGGGCAACAUUCCGAGGGGCCCGUCCCCGCGGUAAUGGCGAAUGGGACCCA showed a self-cleavage of 0.985. GGCCGGCAUGGUCCCAGCCUCCUCGCUGGCGCCCGCUGGGCAACAUUCCGAGGGGACCGUCCUCUCGGUAAUGGCGAAUGGGACCCA gave a self-cleavage of 0.287. In the case of GGCCGGCAUGGUCCCAGACUCCACGCUGGCGCCGGCUGGGCAACAUUCCGAGGGGACCGUCCCCUCGGUAAUGGCGAAUGGGACCCA, the self-cleavage is reported as 0.122. In the case of GGCUGGCAUGGUCCCAGCAUCCUCGCUGGCGCCGGCUGGGCAACAUUCCGAGGGGACCGUCCCCUCGGUAAUGGCGAAUGGGACCCA, the self-cleavage is reported as 0.0678. Variant GGCCGGCAUGGUCCCAGCCUCCUCGCUGGCGCCGGCUGGGCAACAUUCCAAGGGGACCGUCCCCUCGGUAAAGGCGAAUGGGACCCA has a self-cleavage of 0.677. For GGCCGGCAUGGUCCCAGCCUCCUCGCUGGCGCCGGCUGGGCAACAUACCGAGGGGACCGUCCCCUCGGUAAAGGCGAAUGGGACCCA, the self-cleavage was 0.748. For GGCCGGCAUGGUCCCAGCCUCCUCGCUGGCGCCGACUGGGCAACAUUCCGAGGGGACCGUCCCCUCGGUUAUGGCGAAUGGGACCCA, the self-cleavage was 0.62. GGCCGGCAUGGUCCCAGCCUCCUCGCUGUCGCCGGCUGGGCAACAUUCCGAGGGGACCGUCCCCUCGGUAAUGGCAAAUGGGACCCA gave a self-cleavage of 0.107. GGCCGGCAUGGUCCCAGCCUCCUCGCCGGCGCCGGCUGGGCAACAUUCCGAGGGGACCGUCCCCUCGGUAAGGGCGAAUGGGACCCA gave a self-cleavage of 0.612. UGCCGGAAUGGUCCCAGCCUCCUCGCUGGCGCCGGCUGGGCAACAUUCCGAGGGGACCGUCCCCUCGGUAAUGGCGAAUGGGACCCA gave a self-cleavage of 0.169. In the case of GGCCGGCAUGGUCCCAGCCUCCUUGCUGGCGCCGGCUGGGCAACAUUCCGAGGGGACCGUCCCCUCGGUAAUGGCGAAUGGGACCCA, the self-cleavage is reported as 0.73. Variant GGCCGGCAUGGUCCCAGCCUCCUCGCUGGCGCCGGCUGGGCGACAUUCCGAGGGGACCGUCCCCUCGGUAAUGGCGUAUGGGACCCA has a self-cleavage of 0. With GGCCGGCAUGGUCCCAGCCUCCUCGCUGGCGCCGGCUGGGUAACAUUCCGAGGGGACCGUCCCCUCGGUAAUGGCUAAUGGGACCCA the self-cleavage was 0.897. For GGCCGGCAUGGUCCCAGCCACCUCGCUGGCGCCGGCUGGGCAACAUUCCGAGGGGACCGUCCCCUCGGUAACGGCGAAUGGGACCCA, the self-cleavage was 0.0723. GUCCGGCAUGGUCCCAGCCUCCUCGCUGGCGCGGGCUGGGCAACAUUCCGAGGGGACCGUCCCCUCGGUAAUGGCGAAUGGGACCCA showed a self-cleavage of 0.00889. GGCCGGCAUGGCCCCAGCCUCCUCGCUGGCGCCGGCUGGGCAACAUUCCGAGGGGUCCGUCCCCUCGGUAAUGGCGAAUGGGACCCA showed a self-cleavage of 0.499.
